Results from PMC7140980.
pKd: −log10 of the molar value. Read-outs that look alike come from different tables or passages of the source.

Tests used:
Assay in all cases: transient-state stopped-flow spectrofluorometry
[1] = target: L47fUAA GCK (human pancreatic glucokinase with L-(7-hydroxycoumarin-4-yl)ethylglycine in place of Leu47) (human) (UniProt P35557)
[2] = target: L47fUAA GCK (human pancreatic glucokinase with L-(7-hydroxycoumarin-4-yl)ethylglycine in place of Leu47) (human) (UniProt P35557); remark: listed apart in the source
[3] = target: L47fUAA GCK (human pancreatic glucokinase with L-(7-hydroxycoumarin-4-yl)ethylglycine in place of Leu47) (human) (UniProt P35557); remark: listed apart in the source

K2 (step 2, equilibrium constant of isomerisation) [1]: 0.51 | pKd [1]: 4.68 | Kd,intrinsic (step 1, encounter complex) [1]: 32000 nM | k1 (step 1, formation of the encounter complex) [1]: 64000 M⁻¹ s⁻¹ | k−1 (step 1, dissociation of the encounter complex) [1]: 2.06 s⁻¹ | k−2 (step 2, isomerisation reverse) [1]: 0.21 s⁻¹ | pKd [2]: 6.91 | K2 (step 2, equilibrium constant of isomerisation) [3]: 0.72 | pKd [3]: 6.91 | Kd,intrinsic (step 1, encounter complex) [3]: 210 nM | k1 (step 1, formation of the encounter complex) [3]: 170000 M⁻¹ s⁻¹ | k−1 (step 1, dissociation of the encounter complex) [3]: 0.036 s⁻¹ | k−2 (step 2, isomerisation reverse) [3]: 0.36 s⁻¹
Substance: glucokinase regulatory protein (GKRP) (from UniProt Q14397 1-625) (natural protein)
